From US20160194394A1 (GOVERNING COUNCIL OF THE UNIVERSITY OF TORONTO, published 2016)
Changes are numbered by the printed parent chain.

Legend:
[1] = molecular target: T1, FZD7 receptor expressed on cells (full-length) (UniProt O75084 33-574, limits assumed); experiment: flow cytometry, 200 nM Fab, MDA MB 231
T1 construct: whole, on cells; MDA MB 231 cells may carry other Frizzled receptors too; also called full-length FZD7 receptor; endogenous receptor on MDA MB 231 cells
Experimental: (§1) FIG. 3 is a table depicting the binding of the purified Fabs to cells expressing FZD7 (flow cytometry). Small scale Fabs were assayed for binding to full-length FZD7 receptor to an over-expression line in MDA MB 231 cells. In parallel, Fabs were assayed for binding to endogenous receptor expressed on the MDA MB 231 cells. Cells were harvested using an EDTA solution, blocked in 2% FBS/PBS (stain buffer), and stained with 200 nM Fab for 30 min on ice. Cells were washed two times with stain buffer and incubated with anti-F(ab′)₂-APC secondary antibody (Jackson Immuno) at 1:1000 for 15 minutes on ice. All antibodies were diluted in stain buffer. Cells were washed three times with stain buffer and then fixed with 1% paraformaldehye for analysis by flow cytometry. […] The percent of the cell population within the positive gates is indicated.

[2] = molecular target: T1, FZD7 receptor expressed on cells …; experiment: flow cytometry, 200 nM Fab, FZD7 over-expression line (MDA MB 231)
Experimental: as §1

[3] = molecular target: T2, Fc control protein; experiment: ELISA, 10ug/ml (200nM) Fab
T2 construct: also called Fc protein; control Fc protein
Experimental: (§2) FIG. 2B is a table depicting the binding of purified Fabs to purified FZD7-Fc measured by ELISA. Fabs purified from 25 ml bacterial cultures were assayed for binding to FZD7-Fc fusion protein (R&D systems) and Fc protein. ELISA plates (384 well) were coated with 2 ug/ml of protein in PBS overnight at four degrees. Wells were blocked with 0.5% BSA/PBS for 1 hour at room temperature, washed three times with 0.05% Tween20/PBS (wash buffer), and then primary dilutions of Fabs in 0.5% BSA/0.05% Tween20/PBS (dilution buffer) were added at indicated concentrations. Fabs were incubated for 1 hour at room temperature, wells were washed six times, and anti-FLAG-HRP (Sigma) was added at 1:5000 in dilution buffer. Secondary antibody was incubated for 45 minutes at room temperature, and wells were washed six times and developed with TMB substrate with an acid stop. The absorbance at 450 nm was read. n.t.=not tested.

[4] = molecular target: T3, recombinant Frizzled receptor 7 (FZD7) cysteine-rich domain (CRD) fused to the Fc region of human IgG (human, UniProt O75084 33-185); experiment: ELISA, 10ug/ml (200nM) Fab
Experimental: as §2

[5] = molecular target: T2, Fc control protein; experiment: ELISA, 1ug/ml (20nM) Fab
Experimental: as §2

[6] = molecular target: T3, recombinant Frizzled receptor 7 (FZD7) …; experiment: ELISA, 1ug/ml (20nM) Fab
Experimental: as §2

B1: D6 (Fab)
light: DIQMTQSPSSLSASVGDRVTITCRASQSVSSAVAWYQQKPGKAPKLLIYSASSLYSGVPSRFSGSRSGTDFTLTISSLQPEDFATYYCQQFYYSLITFGQGTKVEIKRTVAAPSVFIFPPSDSQLKSGTASVVCLLNNFYPREAKVQWKVDNALQSGNSQESVTEQDSKDSTYSLSSTLTLSKADYEKHKVYACEVTHQGLSSPVTKSFNRGECGGS
heavy: EVQLVESGGGLVQPGGSLRLSCAASGFNISYSSMHWVRQAPGKGLEWVASIYSSYSYTSYADSVKGRFTISADTSKNTAYLQMNSLRAEDTAVYYCARSYGPWAPGWAAYWGGYGMDYWGQGTLVTVSSASTKGPSVFPLAPSSKSTSGGTAALGCLVKDYFPEPVTVSWNSGALTSGVHTFPAVLQSSGLYSLSSVVTVPSSSLGTQTYICNVNHKPSNTKVDKKVEPKSC
notes: selection round 2; also called Fzd7-R2-D6
- % population within the positive gate [1]: 35.3%
- % population within the positive gate [2]: 84.3%
- OD 450 [3]: 0.12
- OD 450 [4]: 3.09
- OD 450 [5]: 0.06
- OD 450 [6]: 2.98

B2: G4 (Fab)
light: B1 light with F91A, Y93A, S94Y
heavy: EVQLVESGGGLVQPGGSLRLSCAASGFNISYSSMHWVRQAPGKGLEWVASISSSYGYTYYADSVKGRFTISADTSKNTAYLQMNSLRAEDTAVYYCARSGGHFYYWYVAAAMDYWGQGTLVTVSSASTKGPSVFPLAPSSKSTSGGTAALGCLVKDYFPEPVTVSWNSGALTSGVHTFPAVLQSSGLYSLSSVVTVPSSSLGTQTYICNVNHKPSNTKVDKKVEPKSC
notes: selection round 2; same four CDRs as Fzd7-R2-B2 (f22); also called Fzd7-R2-G4
- % population within the positive gate [1]: 5.1%
- % population within the positive gate [2]: 85.4%
- OD 450 [3]: 0.07
- OD 450 [4]: 3.17
- OD 450 [5]: 0.05
- OD 450 [6]: 3.15

B3: B10 (Fab)
light: B1 light with F91G, Y92S, Y93V, S94W, I96F
heavy: EVQLVESGGGLVQPGGSLRLSCAASGFNISSSSMHWVRQAPGKGLEWVASISSSSSYTYYADSVKGRFTISADTSKNTAYLQMNSLRAEDTAVYYCARYGSHWSPSYSGWYYYSYALDYWGQGTLVTVSSASTKGPSVFPLAPSSKSTSGGTAALGCLVKDYFPEPVTVSWNSGALTSGVHTFPAVLQSSGLYSLSSVVTVPSSSLGTQTYICNVNHKPSNTKVDKKVEPKSC
notes: selection round 2; not the round 3 clone B10 (f30); also called Fzd7-R2-B10
- % population within the positive gate [1]: 35%
- % population within the positive gate [2]: 88.4%
- OD 450 [3]: 0.06
- OD 450 [4]: 2.99
- OD 450 [5]: 0.06
- OD 450 [6]: 2.82

B4: E5 (Fab)
light: B1 light with F91A, Y92S, Y93W, S94Y, L95P
heavy: EVQLVESGGGLVQPGGSLRLSCAASGFNIYSSSMHWVRQAPGKGLEWVASIYSSYGYTSYADSVKGRFTISADTSKNTAYLQMNSLRAEDTAVYYCARPGYWGYYWGAYGMDYWGQGTLVTVSSASTKGPSVFPLAPSSKSTSGGTAALGCLVKDYFPEPVTVSWNSGALTSGVHTFPAVLQSSGLYSLSSVVTVPSSSLGTQTYICNVNHKPSNTKVDKKVEPKSC
notes: selection round 2; also called Fzd7-R2-E5
- % population within the positive gate [1]: 6.3%
- % population within the positive gate [2]: 86.2%
- OD 450 [3]: 0.06
- OD 450 [4]: 3.17
- OD 450 [5]: 0.07
- OD 450 [6]: 3.17

B5: E9 (Fab)
light: DIQMTQSPSSLSASVGDRVTITCRASQSVSSAVAWYQQKPGKAPKLLIYSASSLYSGVPSRFSGSRSGTDFTLTISSLQPEDFATYYCQQSYVGGPFTFGQGTKVEIKRTVAAPSVFIFPPSDSQLKSGTASVVCLLNNFYPREAKVQWKVDNALQSGNSQESVTEQDSKDSTYSLSSTLTLSKADYEKHKVYACEVTHQGLSSPVTKSFNRGECGGS
heavy: EVQLVESGGGLVQPGGSLRLSCAASGFNISYYSMHWVRQAPGKGLEWVASISSSYSSTYYADSVKGRFTISADTSKNTAYLQMNSLRAEDTAVYYCARGYWYVYVGWGAYYGPVGMDYWGQGTLVTVSSASTKGPSVFPLAPSSKSTSGGTAALGCLVKDYFPEPVTVSWNSGALTSGVHTFPAVLQSSGLYSLSSVVTVPSSSLGTQTYICNVNHKPSNTKVDKKVEPKSC
notes: selection round 2; not the round 3 clone E9 (f29); also called Fzd7-R2-E9
- % population within the positive gate [1]: 99.4%
- % population within the positive gate [2]: 90.7%
- OD 450 [3]: 0.07
- OD 450 [4]: 3.22
- OD 450 [5]: 0.05
- OD 450 [6]: 3.15

B6: D7 (Fab)
light: B5 light with G94Y, G95Y, P96L, F97I
heavy: EVQLVESGGGLVQPGGSLRLSCAASGFNISYYSMHWVRQAPGKGLEWVAYIYPYSSYTYYADSVKGRFTISADTSKNTAYLQMNSLRAEDTAVYYCARYHGFYGMDYWGQGTLVTVSSASTKGPSVFPLAPSSKSTSGGTAALGCLVKDYFPEPVTVSWNSGALTSGVHTFPAVLQSSGLYSLSSVVTVPSSSLGTQTYICNVNHKPSNTKVDKKVEPKSC
notes: selection round 2; also called Fzd7-R2-D7
- % population within the positive gate [1]: 1.7%
- % population within the positive gate [2]: 75.7%
- OD 450 [3]: 0.07
- OD 450 [4]: 3.18
- OD 450 [5]: 0.07
- OD 450 [6]: 3.22

B7: F12 (Fab)
light: DIQMTQSPSSLSASVGDRVTITCRASQSVSSAVAWYQQKPGKAPKLLIYSASSLYSGVPSRFSGSRSGTDFTLTISSLQPEDFATYYCQQAYAPFTFGQGTKVEIKRTVAAPSVFIFPPSDSQLKSGTASVVCLLNNFYPREAKVQWKVDNALQSGNSQESVTEQDSKDSTYSLSSTLTLSKADYEKHKVYACEVTHQGLSSPVTKSFNRGECGGS
heavy: EVQLVESGGGLVQPGGSLRLSCAASGFNISYSYMHWVRQAPGKGLEWVASIYSSYSYTSYADSVKGRFTISADTSKNTAYLQMNSLRAEDTAVYYCARSSAWFGHAGFGGAMDYWGQGTLVTVSSASTKGPSVFPLAPSSKSTSGGTAALGCLVKDYFPEPVTVSWNSGALTSGVHTFPAVLQSSGLYSLSSVVTVPSSSLGTQTYICNVNHKPSNTKVDKKVEPKSC
notes: selection round 2; also called Fzd7-R2-F12
- % population within the positive gate [1]: 1.4%
- % population within the positive gate [2]: 59.9%
- OD 450 [3]: 0.06
- OD 450 [4]: 3.11
- OD 450 [5]: 0.08
- OD 450 [6]: 1.05
